# T1: human B7H4 on the cell surface (human, UniProt Q7Z7D3 25-282)
# T1 construct: whole, on cells; also called CHOK1/hu B7H4; B7H4 on SK-BR-3
# T1 sequence (looked up): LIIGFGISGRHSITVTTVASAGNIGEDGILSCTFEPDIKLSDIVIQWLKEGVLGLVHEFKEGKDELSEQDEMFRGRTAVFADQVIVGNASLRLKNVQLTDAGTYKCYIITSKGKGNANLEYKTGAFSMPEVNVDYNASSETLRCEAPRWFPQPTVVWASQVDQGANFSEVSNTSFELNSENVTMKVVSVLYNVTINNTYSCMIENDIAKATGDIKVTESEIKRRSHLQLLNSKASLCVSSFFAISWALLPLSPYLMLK
# B1: PR003899 (bispecific antibody, human IgG1, lambda, L234A L235A)
# light: QAVVTQEPSLTVSPGGTVTLTCRSSTGAVTTSNYANWVQQKPGQAPRGLIGGTNKRAPWTPARFSGSLLGDKAALTLLGAQPEDEAEYFCALWYSNLWVFGGGTKLTVLGQPKAAPSVTLFPPSSEELQANKATLVCLISDFYPGAVTVAWKADSSPVKAGVETTTPSKQSNNKYAASSYLSLTPEQWKSHRSYSCQVTHEGSTVEKTVAPTECS
# heavy: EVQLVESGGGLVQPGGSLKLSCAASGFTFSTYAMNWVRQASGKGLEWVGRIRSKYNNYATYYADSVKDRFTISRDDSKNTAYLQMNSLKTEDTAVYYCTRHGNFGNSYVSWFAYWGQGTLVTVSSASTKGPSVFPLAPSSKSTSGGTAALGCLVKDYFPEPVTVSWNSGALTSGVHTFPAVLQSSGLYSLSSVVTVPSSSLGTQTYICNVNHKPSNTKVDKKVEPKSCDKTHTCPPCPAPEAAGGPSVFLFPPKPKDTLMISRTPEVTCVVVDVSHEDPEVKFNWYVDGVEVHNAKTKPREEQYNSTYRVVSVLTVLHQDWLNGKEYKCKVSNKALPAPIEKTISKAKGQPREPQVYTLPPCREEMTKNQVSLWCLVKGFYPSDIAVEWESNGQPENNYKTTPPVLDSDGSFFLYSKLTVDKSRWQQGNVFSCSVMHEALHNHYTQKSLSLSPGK
# chain: EIVMTQSPASLSVSPGERATLSCRASQSVSSNLAWYQQKPGQAPRLLIYGASTRATGIPARVSGGGSGTEFTLTISSLQSEDFAVYYCQQYKNWPFTFGPGTKLEIKGGGGSGGGGSGGGGSGGGGSQVQLVQSGAEVKKPGSSMRVSCKASEDTFSSYAISWVRQAPGQGLEWMGGTAPIFGTTNYAQKFQGRVTITADKSTSTAYMELSSLRSEDTAVYYCARGGPYFDYWGQGTLVTVSSASEPKSSDKTHTCPPCPAPEAAGGPSVFLFPPKPKDTLMISRTPEVTCVVVDVSHEDPEVKFNWYVDGVEVHNAKTKPREEQYNSTYRVVSVLTVLHQDWLNGKEYKCKVSNKALPAPIEKTISKAKGQPREPQVCTLPPSREEMTKNQVSLSCAVKGFYPSDIAVEWESNGQPENNYKTTPPVLDSDGSFFLVSKLTVDKSRWQQGNVFSCSVMHEALHNHYTQKSLSLSPGK
# notes: B7H4 x CD3, 1+1 Fab-Fc-scFv: CD3 Fab from PR003886 (knob, LALA; weak CD3 end), B7H4 scFv(VL-VH)-Fc (hole, LALA)
# B2: PR002850 (bispecific antibody, human IgG1, kappa, L234A L235A)
# light: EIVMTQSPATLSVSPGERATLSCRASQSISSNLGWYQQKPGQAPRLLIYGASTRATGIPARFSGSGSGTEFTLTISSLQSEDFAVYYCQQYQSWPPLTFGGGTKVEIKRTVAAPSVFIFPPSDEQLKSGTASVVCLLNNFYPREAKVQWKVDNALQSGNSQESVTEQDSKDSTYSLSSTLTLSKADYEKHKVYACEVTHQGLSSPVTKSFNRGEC
# heavy: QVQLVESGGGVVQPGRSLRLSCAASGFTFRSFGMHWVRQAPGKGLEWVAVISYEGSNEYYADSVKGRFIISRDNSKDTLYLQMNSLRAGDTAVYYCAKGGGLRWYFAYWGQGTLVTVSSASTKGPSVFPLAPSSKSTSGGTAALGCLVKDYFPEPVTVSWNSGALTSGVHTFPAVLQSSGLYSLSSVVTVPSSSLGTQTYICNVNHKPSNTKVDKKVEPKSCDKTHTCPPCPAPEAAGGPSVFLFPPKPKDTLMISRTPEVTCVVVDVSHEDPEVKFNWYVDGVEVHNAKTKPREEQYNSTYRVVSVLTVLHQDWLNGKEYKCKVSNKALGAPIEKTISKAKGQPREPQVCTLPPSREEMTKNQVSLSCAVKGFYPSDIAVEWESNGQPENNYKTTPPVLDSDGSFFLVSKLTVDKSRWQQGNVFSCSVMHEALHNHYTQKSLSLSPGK
# chain: QAVVTQEPSLTVSPGGTVTLTCRSSTGAVTTSNYANWVQQKPGQAPRGLIGGTNKRAPWTPARFSGSLLGDKAALTLLGAQPEDEAEYFCALWYSNLWVFGGGTKLTVLGGGQSGQGGSGGGGSEVQLVESGGGLVQPGGSLKLSCAASGFTFNTYAMNWVRQASGKGLEWVGRIRSKYNNYATYYADSVKDRFTISRDDSKSTLYLQMNSLKTEDTAVYYCVRHGNFGNSYVSWFAYWGQGTLVTVSSASEPKSSDKTHTCPPCPAPEAAGGPSVFLFPPKPKDTLMISRTPEVTCVVVDVSHEDPEVKFNWYVDGVEVHNAKTKPREEQYNSTYRVVSVLTVLHQDWLNGKEYKCKVSNKALGAPIEKTISKAKGQPREPQVYTLPPCREEMTKNQVSLWCLVKGFYPSDIAVEWESNGQPENNYKTTPPVLDSDGSFFLYSKLTVDKSRWQQGNVFSCSVMHEALHNHYTQKSLSLSPGK
# notes: B7H4 x CD3, 1+1 Fab-Fc-scFv (structure 1): B7H4 Fab from PR002405, CD3 scFv-Fc from PR000627
# B3: PR002855 (bispecific antibody, human IgG1, kappa, lambda, L234A L235A)
# chain 1: EVQLLESGGGLVQPGGSLRLSCAASGFTFSTYAMNWVRQAPGKGLEWVSRIRSKYNNYATYYADSVKDRFTISRDDSKSTLYLQMNSLRAEDTAVYYCVRHGNFGNSYVSWFAYWGQGTLVTVSSASTKGPSVFPLAPSSKSTSGGTAALGCLVKDYFPEPVTVSWNSGALTSGVHTFPAVLQSSGLYSLSSVVTVPSSSLGTQTYICNVNHKPSNTKVDKKVEPKSC
# chain 2: QAVVTQEPSLTVSPGGTVTLTCRSSTGAVTTSNYANWVQQKPGQAPRGLIGGTNKRAPWTPARFSGSLLGDKAALTLLGAQPEDEAEYFCALWYSNLWVFGGGTKLTVLGQPKAAPSVTLFPPSSEELQANKATLVCLISDFYPGAVTVAWKADSSPVKAGVETTTPSKQSNNKYAASSYLSLTPEQWKSHRSYSCQVTHEGSTVEKTVAPTECSDKTHTCPPCPAPEAAGGPSVFLFPPKPKDTLMISRTPEVTCVVVDVSHEDPEVKFNWYVDGVEVHNAKTKPREEQYNSTYRVVSVLTVLHQDWLNGKEYKCKVSNKALGAPIEKTISKAKGQPREPQVYTLPPCREEMTKNQVSLWCLVKGFYPSDIAVEWESNGQPENNYKTTPPVLDSDGSFFLYSKLTVDKSRWQQGNVFSCSVMHEALHNHYTQKSLSLSPGK
# heavy: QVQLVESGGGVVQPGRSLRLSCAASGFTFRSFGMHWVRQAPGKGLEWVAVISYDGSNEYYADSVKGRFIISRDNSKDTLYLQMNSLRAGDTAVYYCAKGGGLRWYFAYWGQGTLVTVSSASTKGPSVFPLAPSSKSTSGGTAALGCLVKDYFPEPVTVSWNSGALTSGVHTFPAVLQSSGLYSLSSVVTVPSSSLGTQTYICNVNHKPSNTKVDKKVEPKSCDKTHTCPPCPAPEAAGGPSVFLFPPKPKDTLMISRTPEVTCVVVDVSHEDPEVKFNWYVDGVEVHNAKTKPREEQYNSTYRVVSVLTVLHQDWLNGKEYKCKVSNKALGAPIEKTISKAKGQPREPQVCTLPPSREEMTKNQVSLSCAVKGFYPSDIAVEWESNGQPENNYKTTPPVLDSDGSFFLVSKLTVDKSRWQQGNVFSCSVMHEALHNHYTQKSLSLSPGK
# light: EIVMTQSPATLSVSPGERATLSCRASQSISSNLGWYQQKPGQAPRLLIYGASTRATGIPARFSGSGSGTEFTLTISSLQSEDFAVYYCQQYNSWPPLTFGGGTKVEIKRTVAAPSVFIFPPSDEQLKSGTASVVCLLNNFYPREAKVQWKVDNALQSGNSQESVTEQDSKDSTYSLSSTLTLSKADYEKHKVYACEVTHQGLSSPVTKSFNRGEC
# notes: B7H4 x CD3, 1+1 Fab-Fc-crossFab (structure 4): CD3 Fab(cross Fd/LC) from PR001924 (chains 1 and 2), B7H4 Fab from PR001476 (chains 3 and 4)
# B4: PR002987 (bispecific antibody, human IgG1, kappa, lambda, L234A L235A)
# chain 1: B3 chain 1
# chain 2: not shown
# heavy: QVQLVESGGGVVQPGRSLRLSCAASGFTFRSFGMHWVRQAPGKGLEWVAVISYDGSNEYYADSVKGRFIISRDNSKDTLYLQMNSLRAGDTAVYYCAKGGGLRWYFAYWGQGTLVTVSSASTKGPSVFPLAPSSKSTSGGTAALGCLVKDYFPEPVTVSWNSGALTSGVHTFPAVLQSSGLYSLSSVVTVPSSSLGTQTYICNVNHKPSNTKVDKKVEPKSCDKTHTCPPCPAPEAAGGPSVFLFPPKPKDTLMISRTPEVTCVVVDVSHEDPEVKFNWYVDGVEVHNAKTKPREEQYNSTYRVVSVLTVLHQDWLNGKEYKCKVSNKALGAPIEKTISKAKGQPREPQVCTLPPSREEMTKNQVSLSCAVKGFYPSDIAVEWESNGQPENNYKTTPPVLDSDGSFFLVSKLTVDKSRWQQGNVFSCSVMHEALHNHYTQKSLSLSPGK
# light: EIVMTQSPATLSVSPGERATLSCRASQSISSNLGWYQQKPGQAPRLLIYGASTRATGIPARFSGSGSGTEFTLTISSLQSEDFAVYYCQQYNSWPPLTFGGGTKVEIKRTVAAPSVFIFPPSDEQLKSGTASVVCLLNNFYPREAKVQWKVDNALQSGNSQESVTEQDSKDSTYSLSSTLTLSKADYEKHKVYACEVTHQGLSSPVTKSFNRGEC
# notes: B7H4 x CD3, 2+1 asymmetric structure (structure 5): CD3 end from PR001924, two B7H4 Fabs from PR001476
# B5: PR002856 (bispecific antibody, human IgG1, kappa, lambda, L234A L235A)
# chain 1: B3 chain 1
# chain 2: B3 chain 2
# heavy: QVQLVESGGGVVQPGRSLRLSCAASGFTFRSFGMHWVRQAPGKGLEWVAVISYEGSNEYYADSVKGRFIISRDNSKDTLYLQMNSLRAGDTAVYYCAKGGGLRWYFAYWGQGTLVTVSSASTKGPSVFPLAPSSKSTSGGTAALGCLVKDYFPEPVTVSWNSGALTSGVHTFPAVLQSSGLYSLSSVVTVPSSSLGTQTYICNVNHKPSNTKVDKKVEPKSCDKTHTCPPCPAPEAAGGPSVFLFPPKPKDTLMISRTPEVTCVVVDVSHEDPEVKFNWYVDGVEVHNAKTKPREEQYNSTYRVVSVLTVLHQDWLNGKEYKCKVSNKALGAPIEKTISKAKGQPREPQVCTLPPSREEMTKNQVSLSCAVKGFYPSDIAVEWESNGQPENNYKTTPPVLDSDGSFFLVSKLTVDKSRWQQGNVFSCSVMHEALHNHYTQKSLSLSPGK
# light: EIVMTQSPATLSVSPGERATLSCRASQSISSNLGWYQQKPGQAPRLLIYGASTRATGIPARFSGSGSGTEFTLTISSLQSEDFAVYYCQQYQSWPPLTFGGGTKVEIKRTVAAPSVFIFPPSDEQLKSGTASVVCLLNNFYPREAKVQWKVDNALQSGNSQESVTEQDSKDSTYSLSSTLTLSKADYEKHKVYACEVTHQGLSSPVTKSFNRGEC
# notes: B7H4 x CD3, 1+1 Fab-Fc-crossFab (structure 4): CD3 crossFab from PR001924, B7H4 Fab from PR002405
# Target: T1, human B7H4 on the cell surface
# Test: FACS on SK-BR-3 cells
# Experimental: (§1) SK-BR-3 cells were digested. T cells were isolated using the human T cell isolation kit (Miltenyi, #130-096-535) as described in the method of the instruction, and resuspended with PBS containing 2% BSA. The cell density was adjusted to 1×10⁶ cells/mL. The cells were seeded in a 96-well V-bottom plate (Corning, #3894) at 100 μL/well, followed by the addition of test antibodies diluted in a 3-fold gradient at a concentration that was 2 times the final concentration, each at 100 μL/well. The cells were incubated at 4° C. for 2 h away from light. Thereafter, the cells in each well were rinsed twice with 100 μL of pre-cooled PBS containing 2% BSA, and centrifuged at 500 g at 4° C. for 5 min, and then the supernatant was discarded. Then each well was added with 100 μL of fluorescent secondary antibody (Alexa Fluor 488-conjugated AffiniPure Goat Anti-Human IgG, Fcγ Fragment Specific, Jackson, #109-545-098, diluted in a 1:500 ratio), and the plate was incubated away from light at 4° C. for 1 h. The cells in each well were washed twice with 100 μL of pre-cooled PBS containing 2% BSA, and centrifuged at 500 g at 4° C. for 5 minutes, and then the supernatant was discarded. Finally, the cells in each well were resuspended with 200 μL of pre-cooled PBS containing 2% BSA, and the fluorescence signal values were read using an ACEA Novocyte3000 flow cytometer.
EC50,Maximum MFI,Binder
51.2 nM,227000,B1
0.676 nM,179000,B2
4.05 nM,179000,B3
0.145 nM,193000,B4
1.32 nM,212000,B5

# Target: T2, CD3 on human T cells (human, UniProt P07766 23-207; P04234 22-171; P09693 23-182)
# T2 sequence (P07766 23-207 limits assumed, chain 1 of 3): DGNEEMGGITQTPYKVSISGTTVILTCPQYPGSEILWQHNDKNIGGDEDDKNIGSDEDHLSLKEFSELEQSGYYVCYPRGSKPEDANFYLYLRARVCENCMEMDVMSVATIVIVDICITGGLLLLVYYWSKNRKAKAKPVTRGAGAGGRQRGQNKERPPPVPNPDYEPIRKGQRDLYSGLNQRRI
# T2 sequence (P04234 22-171 limits assumed, chain 2 of 3): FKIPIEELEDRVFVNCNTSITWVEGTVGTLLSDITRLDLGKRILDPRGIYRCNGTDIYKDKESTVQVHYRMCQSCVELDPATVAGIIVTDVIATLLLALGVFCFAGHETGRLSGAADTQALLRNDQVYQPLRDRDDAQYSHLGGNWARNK
# T2 sequence (P09693 23-182 limits assumed, chain 3 of 3): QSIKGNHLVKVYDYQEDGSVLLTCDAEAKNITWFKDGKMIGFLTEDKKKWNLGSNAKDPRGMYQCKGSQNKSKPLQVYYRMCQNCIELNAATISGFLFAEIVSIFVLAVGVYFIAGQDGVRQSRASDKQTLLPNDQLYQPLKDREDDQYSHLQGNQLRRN
# Test: FACS on human T cells
# Experimental: as §1
row,binding result,Binder
1,no binding (tested: 100 nM),B1

# Target: T2, CD3 on human T cells
# Test: FACS on human T cells; EC50 printed as n.d., curve still rising at 100 nM
# Experimental: as §1
row,Maximum MFI,Binder
1,133000,B2
2,197000,B3
3,73600,B4
4,189000,B5

# Reference: patent publication US20230312722A1 (NONA BIOSCIENCES SUZHOU, published 2023)
